From patent US20260241018A1 (BIOCYTOGEN PHARMACEUTICALS BEIJING, published 2026)

Tests used:
[1] = target: T1, human 5T4 expressed on CHO-S cells (CHO-h5T4 cells) (human, UniProt Q13641 32-355); experiment: flow cytometry, CHO-h5T4 cells
T1 sequence: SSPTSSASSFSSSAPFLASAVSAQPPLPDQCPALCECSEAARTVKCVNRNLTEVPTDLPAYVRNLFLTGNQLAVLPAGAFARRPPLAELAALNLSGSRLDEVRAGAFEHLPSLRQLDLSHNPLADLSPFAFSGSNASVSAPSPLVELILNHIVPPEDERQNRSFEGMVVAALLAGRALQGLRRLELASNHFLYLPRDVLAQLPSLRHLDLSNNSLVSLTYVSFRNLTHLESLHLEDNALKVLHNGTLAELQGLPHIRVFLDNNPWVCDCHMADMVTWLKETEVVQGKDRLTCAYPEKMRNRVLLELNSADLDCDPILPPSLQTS
Experimental: (§1) CHO-h5T4 cells, CHO-m5T4 cells, CHO-fas5T4 cells or CHO-d5T4 cells were transferred to a 96-well plate at a density of 2×10⁵ cells/well respectively. The anti-5T4 antibodies were added to the 96-well plate, and incubated at 4° C. for 30 min. Then, the cells were incubated with the secondary antibody anti-hlgG-Fc-Alex Flour 647 (RL1-H) (Jackson ImmunoResearch Laboratories, Inc., Cat #: 109-606-170) at 4° C. in the dark for 15 minutes before flow cytometry analysis.

h5T4-His protein [2] = target: T2, h5T4-His protein (human, UniProt Q13641 32-355, limits assumed); experiment: epitope binding assay, h5T4-His captured; binder = analyte 2; competitor (analyte 1): 32G1
T2 construct: also called His-tagged human 5T4 protein; not shown: His tag
T2 sequence (looked up): T1 sequence
Experimental: (§2) Epitope binding assays were performed using ForteBio Octet system to determine whether two anti-5T4 antibodies target the same or overlapping epitopes. 1×HBS-EP+buffer (10 mM 4-(2-hydroxyethyl)-1-piperazineethanesulfonic acid (HEPES), 150 mM NaCl, 3 mM ethylenediaminetetraacetic acid (EDTA) and 0.05% P20, pH7.4) diluted from HBS-EP+buffer (10×) was used as the running buffer throughout the experiment. About 50 RU of h5T4-His protein was captured at a flow rate of 10 μL/min, and 200 nM of the tested antibody was injected at a flow rate of 30 μL/min to bind the ligand. Another comparison antibody was injected under the same conditions to determine whether the binding of different antibodies interfered with each other. The binding time was 180 s for each antibody.
(§3) The binding value of each antibody was obtained using Data Analysis HT 12.0. To quantify the interference of one antibody binding to another, a binding ratio was calculated to compare each pair of antibodies. The binding ratio is defined as the binding value of the second antibody (analyte 2), divided by the binding value of the first antibody (analyte 1). […] In general, antibody pairs that interfere with each other have the same or overlapping epitopes.

[3] = target: T3, dog 5T4 expressed on CHO-S cells (CHO-d5T4 cells) (dog); experiment: flow cytometry, CHO-d5T4 cells
T3 chain: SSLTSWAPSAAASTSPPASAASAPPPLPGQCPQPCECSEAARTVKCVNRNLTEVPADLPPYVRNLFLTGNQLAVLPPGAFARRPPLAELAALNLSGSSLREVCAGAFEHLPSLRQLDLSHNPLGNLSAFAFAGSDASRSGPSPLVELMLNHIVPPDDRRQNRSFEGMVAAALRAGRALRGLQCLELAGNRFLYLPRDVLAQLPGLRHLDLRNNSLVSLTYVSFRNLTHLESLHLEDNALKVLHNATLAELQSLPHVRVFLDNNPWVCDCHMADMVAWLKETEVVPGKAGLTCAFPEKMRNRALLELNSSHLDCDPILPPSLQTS
Experimental: as §1

h5T4-His protein [4] = target: T2, h5T4-His protein; experiment: epitope binding assay, h5T4-His captured; binder = analyte 2; competitor (analyte 1): 35C6
Experimental: as §2, §3

[5] = target: T4, 5T4 on NCI-H226 cells, NCI-H2030 cells and HCC827 cells (UniProt Q13641 32-420, limits assumed); experiment: flow cytometry on HCC827 cells, Alexa Fluor 647 anti-human IgG Fc secondary antibody, MFI
T4 construct: whole, on cells
T4 sequence (looked up): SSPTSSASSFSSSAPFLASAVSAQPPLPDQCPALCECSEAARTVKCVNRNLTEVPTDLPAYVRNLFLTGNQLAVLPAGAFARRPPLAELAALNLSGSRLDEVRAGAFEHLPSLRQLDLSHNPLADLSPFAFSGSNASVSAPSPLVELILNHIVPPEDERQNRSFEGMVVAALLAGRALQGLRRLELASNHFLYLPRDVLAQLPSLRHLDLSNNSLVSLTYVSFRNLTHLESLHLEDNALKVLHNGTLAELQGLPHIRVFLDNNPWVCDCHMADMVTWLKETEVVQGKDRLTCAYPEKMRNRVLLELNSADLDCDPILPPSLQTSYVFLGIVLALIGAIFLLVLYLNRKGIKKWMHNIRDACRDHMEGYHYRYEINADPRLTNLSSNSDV
Experimental: (§4) NCI-H226 cells, NCI-H2030 cells or HCC827 cells were plated in a 96-well plate at a density of 2×10⁵ cells/well. Serially diluted purified anti-5T4 antibody 32G1 or the positive control PF06263507 analog-SI (maximum concentration: 20 μg/mL, 2-fold dilutions, 12 gradients) were added to each well and were incubated at 4° C. for 30 minutes. Then, after one wash with PBS, the cells were incubated with the secondary antibody Alexa Fluor® 647 anti human IgG Fcγ (Jackson ImmunoResearch Laboratories, Inc., Cat #: 109-606-170) at 4° C. for 15 minutes before flow cytometry analysis.
(§5) The cells were collected, and the mean fluorescence intensity (MFI) was determined.

[6] = target: T4, 5T4 on NCI-H226 cells, NCI-H2030 cells …; experiment: flow cytometry on NCI-H2030 cells, Alexa Fluor 647 anti-human IgG Fc secondary antibody, MFI
Experimental: as §4, §5

[7] = target: T5, mouse 5T4 expressed on CHO-S cells (CHO-m5T4 cells) (mouse, UniProt Q9Z0L0 32-361); experiment: flow cytometry, CHO-m5T4 cells
T5 sequence: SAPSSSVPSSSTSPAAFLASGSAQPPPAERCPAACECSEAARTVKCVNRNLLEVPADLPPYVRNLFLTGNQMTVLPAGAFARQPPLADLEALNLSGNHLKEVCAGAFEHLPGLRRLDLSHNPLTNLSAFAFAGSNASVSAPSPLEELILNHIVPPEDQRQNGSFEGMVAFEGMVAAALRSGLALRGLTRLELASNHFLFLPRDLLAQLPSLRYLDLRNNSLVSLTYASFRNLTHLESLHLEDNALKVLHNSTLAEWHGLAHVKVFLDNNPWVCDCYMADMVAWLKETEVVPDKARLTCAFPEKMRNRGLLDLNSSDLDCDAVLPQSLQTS
Experimental: as §1

B1: 32G1 (antibody, V domains shown)
VH: QVQLVQSGGGLVKPGGSLRLSCVASGFTFSDYYMNWVRQAPGKGLEWISYVGTESIYTYYADTVKGRFTISRDNAKNSLYLQMNSLRAEDTALYYCARARDYNLYGMDVWGQGTTVTVSS
VL: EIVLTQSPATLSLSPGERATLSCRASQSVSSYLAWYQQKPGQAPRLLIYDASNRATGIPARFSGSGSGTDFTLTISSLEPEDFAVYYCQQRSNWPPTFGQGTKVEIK
notes: also called anti-5T4 antibody 32G1
- Percentage of Positive Cells [1]: 56.5%
- binding ratio (h5T4-His protein [2]): 0.01
- Percentage of Positive Cells [3]: 56.3%
- binding ratio (h5T4-His protein [4]): 1.03
- EC50 (read off the curve) [5]: ~0.8 µg/mL
- EC50 (read off the curve) [6]: ~0.2 µg/mL
- Percentage of Positive Cells [7]: 27.1%
